Test results published in publication PMC3030368.

T1: Nrd1 RRM (UniProt P53617 340-410)
T1 sequence: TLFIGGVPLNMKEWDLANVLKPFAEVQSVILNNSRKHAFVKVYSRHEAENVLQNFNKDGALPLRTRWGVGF

T2: Nab3 RRM (Saccharomyces cerevisiae, UniProt P38996 321-415)
T2 sequence: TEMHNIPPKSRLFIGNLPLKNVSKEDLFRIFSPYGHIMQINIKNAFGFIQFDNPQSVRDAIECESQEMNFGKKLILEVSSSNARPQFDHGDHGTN


Key:
Nrd1 RRM = target: T1, Nrd1 RRM; assay: fluorescence anisotropy
Nab3 RRM = target: T2, Nab3 RRM; assay: fluorescence anisotropy

Binder	Kd (Nrd1 RRM) [µM]	binding signal (Nab3 RRM)
GUAA (ssRNA)	66 ± 1	> 6 fold lower affinity than UCUU
UCUU (ssRNA) [UCUU (FA)]	–	~10 fold weaker than snR47 (1 order of magnitude; Kd only in figure)
